Results on 4 molecules are retold here after paper PMC10600457.

Targets include FcγRI (UniProt P12314); FcγRIIA (UniProt P12318); FcγRIIB (UniProt P31994); FcγRIIIA-158V.
Common to all, as to assay: SPR
(In general: Surface plasmon resonance follows binding to a sensor surface in real time, without labels.)

For orientation: Kd means a measure of binding affinity in units of concentration.

UniProt P12314, sequence (P12314 16-374): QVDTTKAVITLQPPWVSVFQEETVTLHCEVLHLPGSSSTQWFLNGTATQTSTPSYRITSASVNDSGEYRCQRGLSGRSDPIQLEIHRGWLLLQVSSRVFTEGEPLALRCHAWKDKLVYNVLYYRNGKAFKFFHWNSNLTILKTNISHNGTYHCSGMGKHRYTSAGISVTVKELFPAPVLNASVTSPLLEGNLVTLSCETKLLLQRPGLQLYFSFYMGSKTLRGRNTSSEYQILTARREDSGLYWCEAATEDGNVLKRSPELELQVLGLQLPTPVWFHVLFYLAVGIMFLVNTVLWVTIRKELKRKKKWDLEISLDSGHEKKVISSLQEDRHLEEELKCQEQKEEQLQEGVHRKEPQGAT
UniProt P31994, sequence (P31994 43-310): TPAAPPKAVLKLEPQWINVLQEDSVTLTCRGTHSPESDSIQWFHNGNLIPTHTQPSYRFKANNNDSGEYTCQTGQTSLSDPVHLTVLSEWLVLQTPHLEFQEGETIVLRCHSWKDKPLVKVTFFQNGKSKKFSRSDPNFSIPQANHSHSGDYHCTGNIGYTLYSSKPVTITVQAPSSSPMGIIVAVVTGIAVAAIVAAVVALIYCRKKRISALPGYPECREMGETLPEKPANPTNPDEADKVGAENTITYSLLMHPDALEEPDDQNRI

B1: Palivizumab (antibody, V domains shown)
VH: QVTLRESGPALVKPTQTLTLTCTFSGFSLSTSGMSVGWIRQPPGKALEWLADIWWDDKKDYNPSLKSRLTISKDTSKNQVVLKVTNMDPADTATYYCARSMITNWYFDVWGAGTTVTVSS
VL: DIQMTQSPSTLSASVGDRVTITCKCQLSVGYMHWYQQKPGKAPKLLIYDTSKLASGVPSRFSGSGSGTEFTLTISSLQPDDFATYYCFQGSGYPFTFGGGTKLEIK
As to B1, the Kd with FcγRI was found to be 0.00101 µM; in the assay with FcγRIIA it was 2.78 µM; in the assay with FcγRIIB it was 12.5 µM; with FcγRIIIA-158V, 0.882 µM.

B2: Nirsevimab (antibody, V domains shown)
VH: QVQLVQSGAEVKKPGSSVMVSCQASGGLLEDYIINWVRQAPGQGPEWMGGIIPVLGTVHYGPKFQGRVTITADESTDTAYMELSSLRSEDTAMYYCATETALVVSETYLPHYFDNWGQGTLVTVSS
VL: DIQMTQSPSSLSAAVGDRVTITCQASQDIVNYLNWYQQKPGKAPKLLIYVASNLETGVPSRFSGSGSGTDFSLTISSLQPEDVATYYCQQYDNLPLTFGGGTKVEIK
As to B2, the Kd with FcγRI turned out to be 0.0103 µM; with FcγRIIA, 9.3 µM; with FcγRIIIA-158V, 2.11 µM.

B3: MEDI8897* (antibody, V domains shown)
VH: B2 VH
VL: B2 VL
Turning to B3, the Kd amounted to 0.00124 µM with FcγRI, 3.72 µM in the assay with FcγRIIA, 13.5 µM with FcγRIIB and 1.15 µM with FcγRIIIA-158V.

B4: MEDI8897*-TM (antibody, V domains shown)
VH: B2 VH
VL: B2 VL
Take B4: the Kd in the assay with FcγRI was 0.24 µM; in the assay with FcγRIIA, 34.4 µM; in the assay with FcγRIIIA-158V, 5.15 µM.
